± gives the uncertainty stated by the source.
Assay: self-splicing fitness, log relative to wild type (ln ratio); higher = more splicing; Tetrahymena group I intron in knt gene, E. coli kanamycin selection, DiMSum; sequences stand for … in CUCUCU…GGAGGGAAAAGUUAUCAGGCAUGCACCUGGUAGCUAGUCUUUAAACCAAUAGAUUGCAUCGGUUUAAAAGGCAAGACCGUCAAAUUGCGGGAAAGGGGUCAACAGCCGUUCAGUACCAAGUCUCAGGGGAAACUUUGAGAUGGCCUUGCAAAGGGUAUGGUAAUAAGCUGACGGACAUGGUCCUAACCACGCAGCCAAGUCCUAAGUCAACAGAUCUUCUGUUGAUAUGGAUGCAGUUCACAGACUAAAUGUCGGUCGGGGAAGAUGUAUUCUUCUCAUAAGAUAUAGUCGGACCUCUCCUUAAUGGGAGCUAGCGGAUGAAGUGAUGCAACACUGGAGCCGCUGGGAACUAAUUUGUAUGCGAAAGUAUAUUGAUUAGUUUUGGAGUACUCGUGGUCG
Outline: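 A randomised library covering all eight P1ex-region intron nucleotides was built with the intron in the knt kanamycin-resistance gene on pET-22b(+) and held in E. coli BL21(DE3). Cells were grown overnight at 37°C or 30°C on LB agar, with or without 25 μg/mL kanamycin, plus 100 μg/mL carbenicillin, 50 μM IPTG and 0.2% rhamnose, and pooled colonies were amplicon-sequenced on an Illumina HiSeq 2500. DiMSum fitness is the error-weighted combination of wild-type-normalised replicate fold changes, kanamycin versus none.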

Row | Sequence | self-splicing fitness (ln) (30 °C) | self-splicing fitness (ln) (37 °C)
1 | UCAAAGCAAUAUUACGUCAC | -3.89 ± 0.36 | -3.01 ± 0.4
2 | UCAAAGCAAUAUUACGUCGG | -0.93 ± 0.056 | -0.055 ± 0.079
3 | UCAAAGCAAUAUUACGUCUU | -4.01 ± 0.18 | -3.03 ± 0.17
4 | UCAAAGCAAUAUUACGUGAG | -0.64 ± 0.046 | -0.25 ± 0.071
5 | UCAAAGCAAUAUUACGUGCA | -0.542 ± 0.048 | 0.0292 ± 0.065
6 | UCAAAGCAAUAUUACGUUCU | -3.76 ± 0.26 | -2.87 ± 0.22
7 | UCACAGCAAUAUUACGAAUA | -2.68 ± 0.14 | -1.44 ± 0.11
8 | UCACAGCAAUAUUACGACCG | -0.795 ± 0.11 | 0.149 ± 0.12
9 | UCACAGCAAUAUUACGACGU | -3.44 ± 0.16 | -3.53 ± 0.26
10 | UCACAGCAAUAUUACGAGGU | -4.27 ± 0.36 | -2.54 ± 0.22
11 | UCACAGCAAUAUUACGCAAC |  | -3.26 ± 0.39
12 | UCACAGCAAUAUUACGCACC | -2.35 ± 0.3 | 
13 | UCACAGCAAUAUUACGCACU | -2.56 ± 0.17 | -2.8 ± 0.24
14 | UCACAGCAAUAUUACGCAGC | -3.29 ± 0.2 | -2.62 ± 0.25
15 | UCACAGCAAUAUUACGGAAG | -3.85 ± 0.23 | -2.3 ± 0.17
16 | UCACAGCAAUAUUACGGACC |  | -2.14 ± 0.29
17 | UCACAGCAAUAUUACGGCAA | -1.38 ± 0.1 | -1.42 ± 0.097
18 | UCACAGCAAUAUUACGGCGG | -0.848 ± 0.056 | 0.0491 ± 0.078
19 | UCACAGCAAUAUUACGGGGC | -4.05 ± 0.21 | -2.4 ± 0.15
20 | UCACAGCAAUAUUACGGUAU | -3.42 ± 0.19 | -3.05 ± 0.18
21 | UCACAGCAAUAUUACGGUGC | -3.04 ± 0.18 | -1.47 ± 0.14
22 | UCACAGCAAUAUUACGUAAC | -3.69 ± 0.12 | -2.79 ± 0.14
23 | UCACAGCAAUAUUACGUCGU | -3.62 ± 0.19 | -1.49 ± 0.22
24 | UCACAGCAAUAUUACGUCUG | -3.02 ± 0.13 | -0.735 ± 0.11
25 | UCACAGCAAUAUUACGUGGA | -2.51 ± 0.095 | -2.36 ± 0.1

Row | Sequence | self-splicing fitness (ln) (30 °C) | self-splicing fitness (ln) (37 °C)
26 | UCACAGCAAUAUUACGUGGC | -3.08 ± 0.18 | -2.83 ± 0.26
27 | UCACAGCAAUAUUACGUUUU | -3.72 ± 0.14 | -3.09 ± 0.15
28 | UCAGAGCAAUAUUACGAAUA | -2.84 ± 0.32 | -2.14 ± 0.38
29 | UCAGAGCAAUAUUACGAAUG | -1.78 ± 0.24 | -2.76 ± 0.38
30 | UCAGAGCAAUAUUACGAGCC |  | -2.18 ± 0.4
31 | UCAGAGCAAUAUUACGAGGG | -2.95 ± 0.16 | -1.94 ± 0.16
32 | UCAGAGCAAUAUUACGAGGU | -3 ± 0.29 | -2.5 ± 0.32
33 | UCAGAGCAAUAUUACGAGUA | -3.89 ± 0.46 | -1.01 ± 0.14
34 | UCAGAGCAAUAUUACGAGUC | -3.39 ± 0.35 | -3.09 ± 0.21
35 | UCAGAGCAAUAUUACGAUGC | -3.8 ± 0.32 | -1.68 ± 0.24
36 | UCAGAGCAAUAUUACGCAUA | -3.19 ± 0.42 | 
37 | UCAGAGCAAUAUUACGCAUG | -3.13 ± 0.3 | -2.02 ± 0.21
38 | UCAGAGCAAUAUUACGCCAG | -2.62 ± 0.3 | -0.0811 ± 0.28
39 | UCAGAGCAAUAUUACGCCGA | -3.18 ± 0.33 | -1.63 ± 0.23
40 | UCAGAGCAAUAUUACGCCGU |  | -3.02 ± 0.43
41 | UCAGAGCAAUAUUACGCGGA | -2.96 ± 0.33 | -1.64 ± 0.17
42 | UCAGAGCAAUAUUACGCUAG | -2.4 ± 0.12 | -2.95 ± 0.28
43 | UCAGAGCAAUAUUACGGAUA | -2.81 ± 0.3 | 
44 | UCAGAGCAAUAUUACGGCCA | -2.1 ± 0.27 | -2.17 ± 0.32
45 | UCAGAGCAAUAUUACGGGUU | -3.76 ± 0.46 | -1.58 ± 0.26
46 | UCAGAGCAAUAUUACGUAGG | -0.836 ± 0.12 | -0.744 ± 0.17
47 | UCAGAGCAAUAUUACGUAUG | -2.12 ± 0.23 | -2.37 ± 0.31
48 | UCAGAGCAAUAUUACGUGCC | -2.62 ± 0.41 | 
49 | UCAGAGCAAUAUUACGUGCG | -2.9 ± 0.23 | -0.826 ± 0.16
50 | UCAGAGCAAUAUUACGUGUG | -2.67 ± 0.13 | -2.53 ± 0.13

Row | Sequence | self-splicing fitness (ln) (30 °C) | self-splicing fitness (ln) (37 °C)
51 | UCAUAGCAAUAUUACGAACA | -1.78 ± 0.17 | -0.838 ± 0.16
52 | UCAUAGCAAUAUUACGACAU | -4.005 ± 0.032 | -2.92 ± 0.042
53 | UCAUAGCAAUAUUACGACGC | -1.6 ± 0.19 | -0.696 ± 0.21
54 | UCAUAGCAAUAUUACGACGG | -0.375 ± 0.11 | -0.184 ± 0.13
55 | UCAUAGCAAUAUUACGACUG | -1.04 ± 0.1 | -0.379 ± 0.14
56 | UCAUAGCAAUAUUACGAUAC | -3.23 ± 0.38 | 
57 | UCAUAGCAAUAUUACGAUAU | -3.76 ± 0.32 | -2.4 ± 0.29
58 | UCAUAGCAAUAUUACGAUCG | -0.885 ± 0.09 | -0.426 ± 0.12
59 | UCAUAGCAAUAUUACGAUGC | -1.49 ± 0.14 | -1.43 ± 0.14
60 | UCAUAGCAAUAUUACGAUUU | -3.45 ± 0.22 | -2.24 ± 0.22
61 | UCAUAGCAAUAUUACGCAAU | -3.1 ± 0.19 | -2.84 ± 0.28
62 | UCAUAGCAAUAUUACGCAGA | -2.93 ± 0.34 | -2.7 ± 0.24
63 | UCAUAGCAAUAUUACGCCAG | -1.74 ± 0.17 | -2.4 ± 0.19
64 | UCAUAGCAAUAUUACGCCGC | -3.77 ± 0.33 | -1.61 ± 0.41
65 | UCAUAGCAAUAUUACGCUAA | -3.23 ± 0.37 | -2.07 ± 0.29
66 | UCAUAGCAAUAUUACGGAAG |  | -2.19 ± 0.33
67 | UCAUAGCAAUAUUACGGCAG | -1.31 ± 0.15 | -1.07 ± 0.15
68 | UCAUAGCAAUAUUACGGGUA | -1.8 ± 0.094 | -1.53 ± 0.079
69 | UCAUAGCAAUAUUACGGUAA | -2.44 ± 0.27 | -0.618 ± 0.15
70 | UCAUAGCAAUAUUACGGUAG | -3.28 ± 0.23 | -1.77 ± 0.17
71 | UCAUAGCAAUAUUACGGUCA | -1.1 ± 0.16 | -0.484 ± 0.16
72 | UCAUAGCAAUAUUACGUCGG | -1.34 ± 0.12 | -0.0833 ± 0.11
73 | UCAUAGCAAUAUUACGUCGU | -3.88 ± 0.39 | -1.79 ± 0.38
74 | UCAUAGCAAUAUUACGUCUA | -2.05 ± 0.19 | -0.601 ± 0.14
75 | UCAUAGCAAUAUUACGUGAA | -2.56 ± 0.091 | -1.61 ± 0.1

Row | Sequence | self-splicing fitness (ln) (30 °C) | self-splicing fitness (ln) (37 °C)
76 | UCAUAGCAAUAUUACGUUGU | -4.35 ± 0.23 | -2.77 ± 0.21
77 | UCCAAGCAAUAUUACGAAAU | -2.02 ± 0.2 | -1.98 ± 0.21
78 | UCCAAGCAAUAUUACGAAUA | -2.4 ± 0.16 | -1.13 ± 0.097
79 | UCCAAGCAAUAUUACGAAUC |  | -1.28 ± 0.19
80 | UCCAAGCAAUAUUACGAAUU | -3.42 ± 0.14 | -2.5 ± 0.16
81 | UCCAAGCAAUAUUACGACCG |  | -1.38 ± 0.41
82 | UCCAAGCAAUAUUACGAGCU | -3.58 ± 0.16 | -3 ± 0.25
83 | UCCAAGCAAUAUUACGAGGU | -3.4 ± 0.14 | -1.8 ± 0.11
84 | UCCAAGCAAUAUUACGAUAU | -3.24 ± 0.19 | -2.57 ± 0.16
85 | UCCAAGCAAUAUUACGAUGG | -1.01 ± 0.059 | 0.16 ± 0.083
86 | UCCAAGCAAUAUUACGCCAU | -4.34 ± 0.28 | -3.21 ± 0.27
87 | UCCAAGCAAUAUUACGCCCU | -2.49 ± 0.24 | -1.32 ± 0.26
88 | UCCAAGCAAUAUUACGCCGC | -2.64 ± 0.32 | 
89 | UCCAAGCAAUAUUACGCUAC | -3.8 ± 0.27 | -2.48 ± 0.24
90 | UCCAAGCAAUAUUACGGACC | -2.63 ± 0.36 | -0.119 ± 0.18
91 | UCCAAGCAAUAUUACGGAGC | -3.35 ± 0.37 | -2.44 ± 0.26
92 | UCCAAGCAAUAUUACGGAGU | -2.17 ± 0.12 | -1.44 ± 0.13
93 | UCCAAGCAAUAUUACGGAUG | -3.77 ± 0.13 | -3.2 ± 0.25
94 | UCCAAGCAAUAUUACGGGCG | -1.05 ± 0.073 | -0.839 ± 0.085
95 | UCCAAGCAAUAUUACGGGGG | -3.91 ± 0.2 | -3.41 ± 0.24
96 | UCCAAGCAAUAUUACGGGUU | -3.89 ± 0.14 | -1.75 ± 0.097
97 | UCCAAGCAAUAUUACGUCAG | -3.02 ± 0.15 | -1.69 ± 0.13
98 | UCCAAGCAAUAUUACGUCCU | -4.09 ± 0.31 | -2.95 ± 0.43
99 | UCCAAGCAAUAUUACGUCGC | -3.47 ± 0.21 | -3.12 ± 0.28
